B1: unnamed (peptide)
chain: SPLGAPPPPPHKDHL
B2: unnamed (peptide)
chain: RTRRRPPPPPIPSTQ
B3: unnamed (peptide)
chain: GDHPKGPPPPPPPPD
B4: unnamed (peptide)
chain: MSPLGAPPPPPHKDH

molecular target: Bem1-1, P29366; experiment: SPOT array; conditions: median of control spots 4282
Sequence (P29366 55-141): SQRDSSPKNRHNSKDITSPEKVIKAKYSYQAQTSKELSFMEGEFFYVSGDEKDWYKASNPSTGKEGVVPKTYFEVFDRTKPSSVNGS

Binder	SPOT intensity
B1	0
B2	0
B3	0
B4	0

molecular target: T1, Boi2, P39969; experiment: SPOT array; conditions: median of control spots 1161
T1 sequence (P39969 32-116, looked up): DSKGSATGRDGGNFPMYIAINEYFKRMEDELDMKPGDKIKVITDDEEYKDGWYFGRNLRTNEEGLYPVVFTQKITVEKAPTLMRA

Binder	SPOT intensity
B1	0
B2	0
B3	0
B4	0

molecular target: T2, Fus1, P11710; experiment: SPOT array; conditions: median of control spots 1200
T2 sequence (P11710 432-512, looked up): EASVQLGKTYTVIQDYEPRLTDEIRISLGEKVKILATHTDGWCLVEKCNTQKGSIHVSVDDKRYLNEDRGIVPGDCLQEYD

Binder	SPOT intensity
B1	0
B2	13
B3	0
B4	0

molecular target: Sho1, P40073; experiment: SPOT array; conditions: median of control spots 1148
Sequence (P40073 287-367): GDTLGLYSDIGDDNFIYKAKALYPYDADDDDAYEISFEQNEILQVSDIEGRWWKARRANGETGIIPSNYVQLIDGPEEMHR

Binder	SPOT intensity
B1	1
B2	83
B3	0
B4	0

molecular target: T3, Pin3, Q06449; experiment: SPOT array; conditions: median of control spots 2171
T3 sequence (Q06449 53-122, looked up): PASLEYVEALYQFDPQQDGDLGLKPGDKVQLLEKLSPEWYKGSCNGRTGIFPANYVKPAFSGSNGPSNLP

Binder	SPOT intensity
B1	0
B2	10
B3	0
B4	0

molecular target: T4, Bzz1-2, P38822; experiment: SPOT array; conditions: median of control spots 4538
T4 sequence (P38822 568-633, looked up): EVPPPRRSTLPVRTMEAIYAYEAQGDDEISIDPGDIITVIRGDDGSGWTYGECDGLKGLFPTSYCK

Binder	SPOT intensity
B1	0
B2	2960
B3	0
B4	1

molecular target: T5, Cdc25, P04821; experiment: SPOT array; conditions: median of control spots 969
T5 sequence (P04821 50-136, looked up): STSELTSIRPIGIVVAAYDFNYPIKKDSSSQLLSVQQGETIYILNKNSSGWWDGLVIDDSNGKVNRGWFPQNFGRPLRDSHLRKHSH

Binder	SPOT intensity
B1	0
B2	3
B3	0
B4	0

molecular target: T6, Boi1, P38041; experiment: SPOT array; conditions: median of control spots 1162
T6 sequence (P38041 1-86, looked up): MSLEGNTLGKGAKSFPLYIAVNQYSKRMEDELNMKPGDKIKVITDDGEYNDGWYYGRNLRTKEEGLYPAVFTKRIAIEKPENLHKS

Binder	SPOT intensity
B1	1
B2	1
B3	0
B4	0

molecular target: T7, Myo5, Q04439; experiment: SPOT array; conditions: median of control spots 471
T7 sequence (Q04439 1072-1160, looked up): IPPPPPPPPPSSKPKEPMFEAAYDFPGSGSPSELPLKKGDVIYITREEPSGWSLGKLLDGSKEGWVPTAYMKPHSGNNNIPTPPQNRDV

Binder	SPOT intensity
B1	81
B2	243
B3	262
B4	108

molecular target: T8, Pex13, P80667; experiment: SPOT array; conditions: median of control spots 1341
T8 sequence (P80667 295-386, looked up): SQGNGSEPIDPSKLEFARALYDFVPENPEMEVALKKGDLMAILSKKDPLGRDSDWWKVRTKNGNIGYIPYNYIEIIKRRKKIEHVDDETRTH

Binder	SPOT intensity
B1	0
B2	21
B3	0
B4	0

molecular target: T9, Abp1, P15891; experiment: SPOT array; conditions: median of control spots 935
T9 sequence (P15891 535-592, looked up): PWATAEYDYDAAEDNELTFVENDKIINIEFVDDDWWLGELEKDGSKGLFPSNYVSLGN

Binder	SPOT intensity
B1	0
B2	212
B3	0
B4	0

molecular target: T10, Sla1-3, P32790; experiment: SPOT array; conditions: median of control spots 5475
T10 sequence (P32790 344-424, looked up): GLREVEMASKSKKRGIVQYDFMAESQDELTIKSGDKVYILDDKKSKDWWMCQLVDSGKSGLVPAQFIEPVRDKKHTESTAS

Binder	SPOT intensity
B1	0
B2	1980
B3	0
B4	0

molecular target: T11, Lsb4, P32793; experiment: SPOT array; conditions: median of control spots 397
T11 sequence (P32793 402-468, looked up): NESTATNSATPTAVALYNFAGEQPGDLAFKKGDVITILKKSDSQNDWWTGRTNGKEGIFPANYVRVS

Binder	SPOT intensity
B1	0
B2	69
B3	0
B4	0

molecular target: T12, Bbc1, P47068; experiment: SPOT array; conditions: median of control spots 796
T12 sequence (P47068 1-78, looked up): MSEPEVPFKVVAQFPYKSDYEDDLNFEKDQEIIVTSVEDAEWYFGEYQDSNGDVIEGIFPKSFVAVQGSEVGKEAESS

Binder	SPOT intensity
B1	0
B2	434
B3	0
B4	0

molecular target: T13, Bzz1-1, P38822; experiment: SPOT array; conditions: median of control spots 4446
T13 sequence (P38822 478-572, looked up): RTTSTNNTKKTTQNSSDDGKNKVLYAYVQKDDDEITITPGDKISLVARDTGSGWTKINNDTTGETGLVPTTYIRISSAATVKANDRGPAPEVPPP

Binder	SPOT intensity
B1	0
B2	1470
B3	331
B4	0

molecular target: Myo3, P36006; experiment: SPOT array; conditions: median of control spots 468

Binder	SPOT intensity
B1	327
B2	487
B3	456
B4	245

molecular target: Bem1-2, P29366; experiment: SPOT array; conditions: median of control spots 4347
Sequence (P29366 139-227): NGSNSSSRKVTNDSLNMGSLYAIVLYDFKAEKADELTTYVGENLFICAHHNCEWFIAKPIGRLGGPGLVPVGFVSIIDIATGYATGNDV

Binder	SPOT intensity
B1	0
B2	79
B3	0
B4	0

molecular target: GST; experiment: SPOT array; conditions: median of control spots 978

Binder	SPOT intensity
B1	1
B2	1
B3	0
B4	1

molecular target: T14, Lsb3, P43603; experiment: SPOT array; conditions: median of control spots 406
T14 sequence (P43603 385-451, looked up): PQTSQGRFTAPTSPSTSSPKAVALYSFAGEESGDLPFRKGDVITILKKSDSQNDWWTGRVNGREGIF

Binder	SPOT intensity
B1	0
B2	56
B3	0
B4	0

molecular target: T15, Hof1, Q05080; experiment: SPOT array; conditions: median of control spots 4086
T15 sequence (Q05080 590-669, looked up): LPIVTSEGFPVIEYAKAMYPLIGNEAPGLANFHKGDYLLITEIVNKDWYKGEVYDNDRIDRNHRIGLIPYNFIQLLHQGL

Binder	SPOT intensity
B1	0
B2	8
B3	0
B4	0

molecular target: T16, Cyk3, Q07533; experiment: SPOT array; conditions: median of control spots 1451
T16 sequence (Q07533 1-83, looked up): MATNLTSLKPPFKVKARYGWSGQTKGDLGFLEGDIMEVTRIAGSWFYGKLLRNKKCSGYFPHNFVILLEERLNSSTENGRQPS

Binder	SPOT intensity
B1	0
B2	3
B3	0
B4	0

molecular target: T17, Sla1-2, P32790; experiment: SPOT array; conditions: median of control spots 712
T17 sequence (P32790 60-140, looked up): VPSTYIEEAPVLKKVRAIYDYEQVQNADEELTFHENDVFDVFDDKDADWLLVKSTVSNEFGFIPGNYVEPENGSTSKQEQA

Binder	SPOT intensity
B1	0
B2	3
B3	0
B4	0

molecular target: T18, Nbp2, Q12163; experiment: SPOT array; conditions: median of control spots 357
T18 sequence (Q12163 103-180, looked up): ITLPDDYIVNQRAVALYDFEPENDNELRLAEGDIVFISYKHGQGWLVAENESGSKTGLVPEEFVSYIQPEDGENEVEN

Binder	SPOT intensity
B1	0
B2	107
B3	1
B4	0

molecular target: T19, Bud14, P27637; experiment: SPOT array; conditions: median of control spots 956
T19 sequence (P27637 247-328, looked up): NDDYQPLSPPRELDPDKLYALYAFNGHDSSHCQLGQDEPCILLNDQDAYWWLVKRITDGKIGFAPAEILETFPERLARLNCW

Binder	SPOT intensity
B1	0
B2	16
B3	1
B4	0

molecular target: T20, Lsb1, P53281; experiment: SPOT array; conditions: median of control spots 388
T20 sequence (P53281 45-122, looked up): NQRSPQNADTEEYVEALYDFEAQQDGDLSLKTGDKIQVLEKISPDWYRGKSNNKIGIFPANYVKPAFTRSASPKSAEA

Binder	SPOT intensity
B1	0
B2	800
B3	0
B4	0

molecular target: T21, Hse1, P38753; experiment: SPOT array; conditions: median of control spots 1727
T21 sequence (P38753 208-285, looked up): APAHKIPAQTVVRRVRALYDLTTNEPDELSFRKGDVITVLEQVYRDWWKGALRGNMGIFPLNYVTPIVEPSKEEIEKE

Binder	SPOT intensity
B1	0
B2	63
B3	0
B4	0

molecular target: Rvs167, P39743; experiment: SPOT array; conditions: median of control spots 2707
Sequence (P39743 419-482): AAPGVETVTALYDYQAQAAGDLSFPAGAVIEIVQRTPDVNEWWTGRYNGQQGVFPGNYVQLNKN

Binder	SPOT intensity
B1	2
B2	99
B3	0
B4	0
